Among the data in CN114409782A (HUAI SHANGHAI BIOMEDICINE LTD COMPANY, dated 2022) are Kd, koff and kon values, retold here.

To fix the notation:
T1: IL13Ra2抗原 (in solution, Biacore) (UniProt Q14627 27-343, limits assumed)
T1 construct: also called IL13Rα2; 白介素13受体α2
T1 sequence (looked up): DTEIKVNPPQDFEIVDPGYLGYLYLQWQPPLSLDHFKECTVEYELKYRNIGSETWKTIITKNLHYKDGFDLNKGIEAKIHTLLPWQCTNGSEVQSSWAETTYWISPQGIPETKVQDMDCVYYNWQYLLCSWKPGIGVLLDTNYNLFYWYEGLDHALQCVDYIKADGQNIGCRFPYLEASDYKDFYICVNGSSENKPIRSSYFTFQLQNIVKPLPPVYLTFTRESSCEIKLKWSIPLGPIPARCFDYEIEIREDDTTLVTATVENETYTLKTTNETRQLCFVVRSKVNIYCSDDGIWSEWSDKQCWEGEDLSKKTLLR

B1: 抗IL13Ra2纳米抗体VHH-1 (VHH-mIgG2a Fc) (Fc fusion)
chain: QVQLVESGGGLVQPGGSLRLSCAASGFTLDYYAIAWFRQAPGKRREGVSCISSSEGSTNYADSVKGRFTISRDNAKNTVYLQMNSLKPEDTAVYYCAADSTGRCWARPLYEYDYRGQGTQVTVSS
notes: not shown: mouse IgG2a Fc tag from vector C-4pCP.Stuffer-mCg2a-FC
B2: 抗IL13Ra2纳米抗体VHH-13 (VHH-mIgG2a Fc) (Fc fusion)
chain: QVQLVESGGGSVQAGGSLRLSCTSSRFTLDYYAIAWFRQAPGKRREGVSCISSSEGSTNYADSVKGRFTISRDNAKNTVYLQMNSLKPEDTAVYYCAADSTGRCWARPLYEYDYRGQGTQVTVSS
notes: as for B1
B3: 抗IL13Ra2纳米抗体VHH-7 (VHH-mIgG2a Fc) (Fc fusion)
chain: QVQLVESGGGLAHPGGRLRVTCTASGANLKNYAVGWFRQRPGKQREEVACLRVRYANTNKAPSVRERVHVFREENNNLVYMLMSDLTPEDTGIYYCAARPQQPSADCSLLANDYDNWGQGIQVTVSE
notes: as for B1

Usually Kd stands for the concentration at which binding is half-saturated. The koff is a measure of how fast the partners let go of each other. Read a high koff as a short-lived complex. Usually kon stands for the second-order rate constant of association. Read a high kon as faster complex formation.

The target in this assay is T1, IL13Ra2抗原 (in solution, Biacore). Description: SPR (Biacore), antibody fixed on chip, IL13Ra2 in solution.
As for B1, the Kd turned out to be 16.1 nM, the koff was 0.00156 s⁻¹ and the kon worked out at 55300 M⁻¹ s⁻¹.

B2 returned a Kd of 16.6 nM, a koff of 0.00433 s⁻¹ and a kon of 68300 M⁻¹ s⁻¹.

In turn, B3 registered a dissociation constant Kd of 32.4 nM, a dissociation rate constant (koff) of 0.00066 s⁻¹ and a kon of 65400 M⁻¹ s⁻¹.
